From patent publication US20020115613A1, “Treatment of prostate cancer” (priority 2001, published 2002)

B1: Tumor necrosis factor α—Related Apoptosis Inducing Ligand (protein, UniProt P50591 1-281, looked up)
Tumor necrosis factor ligand …: MAMMEVQGGPSLGQTCVLIVIFTVLLQSLCVAVTYVYFTNELKQMQDKYSKSGIACFLKEDDSYWDPNDEESMNSPCWQVKWQLRQLVRKMILRTSEETISTVQEKQQNISPLVRERGPQRVAAHITGTRGRSNTLSSPNSKNEKALGRKINSWESSRSGHSFLSNLHLRNGELVIHEKGFYYIYSQTYFRFQEEIKENTKNDKQMVQYIYKYTSYPDPILLMKSARNSCWSKDAEYGLYSIYQGGIFELKENDRIFVSVTNEHLIDMDHEASFFGAFLVG
notes: 281 amino acid type II transmembrane protein of the tumor necrosis factor α family; purchased from Biomol

How the values were obtained:
Format in all cases: cell-based
LNCaP C4-2 cells = experiment: Western blotting of death receptors, caspases, Bid, cytochrome c, Akt; conditions: LNCaP C4-2; for DR4 levels: FIG. 2B
Procedure: (§1) LNCaP were obtained from American Type Culture Collection (Rockville, Md.) and LNCaP C4-2 cells were purchased from Urocor Inc., Oklahoma City, Okla. Cells were grown in RPMI 1640 medium supplemented with 10% (LNCaP) or 5% (LNCaP C4-2) fetal bovine serum (Hyclone, Logan, Utah) and grown in the presence of 5% CO2 at 37° C. Cells were treated with 10 μM Mifepristone (Sigma, St. Louis, Mo.) for three days or with increasing concentrations (from 200 ng/ml to 600 ng/ml) of TRAIL (Biomol Research Laboratories, Inc., Plymouth Meetings, Pa.) for varying time intervals 2, 4, 6, 8, 16, 20 and 24 hours (hr). Thus, for treatment with Mifepristone, cells were treated with Mifepristone for three days and then some cells treated (without washing) with TRAIL for indicated periods. Upon completion of the experiment, cells were harvested, and total proteins, cytosol or mitochondrial fractions were isolated as described below. At least three experiments were conducted with a minimum of four plates per treatment per experiment.
(§2) For experiments using inhibitors, the cells were pre-treated with increasing concentrations of the inhibitors (10 μM to 100 μM) for one hr and then with TRAIL. Caspase-8-specific (Z-IETD-FMK) and caspase-9-specific ([…]) inhibitors were purchased from Enzyme Systems Products, Livermore, Calif. The inhibitors were dissolved in DMSO; to limit cellular toxicity, care was taken not to exceed 0.2% DMSO in the culture medium. Appropriate controls included vehicle treated cells with or without the inhibitors.
(§3) Cells were harvested by trypsinization, washed in 1×PBS and cell pellets resuspended in lysis buffer (100 mM Tris-HCl pH 8.0, 0.1% Triton X 100 and protease inhibitor cocktail from Roche Diagnostic Corporation, Indianapolis, Ind.). Cells were incubated over ice for 30 min and centrifuged at 10,000 g at 4° C. for 10 min. The supernatant was collected and the protein concentration estimated using Bio-Rad protein reagent (Bio-Rad Laboratories, Hercules, Calif.).
(§4) Proteins (50 μg, unless stated otherwise) were separated on NuPAGE 10% Bis-Tris gels (Novex pre-cast mini gels, InVitrogen, Carlsbad, Calif.) at 100 volts for 1 hour in the presence of 1×MES-SDS running buffer (InVitrogen, Carlsbad, Calif.). Separated proteins were transferred to (PVDF) membranes (Bio-Rad Laboratories, Hercules, Calif.) at 42 volts for 2.5 hr using a Novex XCell II blotting apparatus in MES transfer buffer in the presence of NuPAGE antioxidant. Transfer of the proteins to the polyvinylidene difluoride (PVDF) membrane was confirmed by staining with Ponceau S (Sigma, St. Louis, Mo.). The blots were blocked in 5% non-fat dry milk in TBS, washed twice for 10 min each with TBS containing 0.1% Tween-20 and incubated for 2 hr at RT with primary antibody diluted in TBS containing 0.5% milk.
(§5) The following antibodies were used in the immunoblots: DR4, DR5 and cytochrome c (Imgenex, San Diego, Calif.), BID (BioSource International, Camarillo, Calif.), caspases-8, -9, and Akt (Cell Signaling Technology, Beverely, Mass.), caspase-3 (BD Pharmingen, San Diego, Calif.) Iκβ and XIAP (Cell Signaling Technology, Beverly, Mass.), cFLIP (StressGen Biotechnology Corp, Victoria, Canada), actin (Sigma Chemical Co., St. Louis, Mo.) and Cox II (Molecular Probes, Eugene, Oreg.). Immunoreactive bands were visualized using ECL detection system (Amersham, Pharmacia Biotech, Arlington Heights, Ill.) and signals were developed after exposure to X-ray film (X-Omat films, Eastman Kodak Company, Rochester, N.Y.).
(§6) For separation of mitochondrial and cytosolic fractions, cells were trypsinized, centrifuged at 600 g for 10 min at 4° C., washed twice in ice-cold PBS and re-suspended in buffer A (20 mM HEPES-KOH, pH 7.2, 10 mM KCl, 1.5 mM MgC12, 1 mM sodium-EDTA, 1 mM sodium-EGTA, 250 mM sucrose and protease inhibitor cocktail). Cells were homogenized on ice with a glass Dounce homogenizer (30 strokes) and were centrifuged at 750 g for 5 min at 4° C. […]

LNCaP cells = experiment: as above; conditions: LNCaP; for DR4 levels / expression of DR5: FIG. 2A
Procedure: as §1, §2, §3, §4, §5, §6

PC3AR cells = experiment: Induction of apoptosis / cell survival (FIG. 1E, 6A)
Procedure: PC3AR cells are a clonal cell line derived by stable transfection of PC3 with a full-length human AR cDNA (Dai, J. L., et al., Steroids, 61, 531-539, 1996). PC3Neo cells were stably transfected with neomycin vector alone. Cells were grown in RPMI 1640 with 5% FBS (Hyclone, Logan, Utah), 100 units/ml penicillin, 100 μg/ml streptomycin, 0.25 μg/ml fungizone and G418 (350 μg/ml) to select for neomycin-resistant cells. In experiments using antiandrogens, cells were maintained in 5% DCC stripped serum for at least 48 hr before treatment with hydroxyflutamide (Sigma Chemical Co., St. Louis, Mo.). The medium and all the drugs were replaced every two days. Cells were treated with 200 ng/ml, 400 ng/ml or 600 ng/ml of TRAIL (Biomol Research Laboratories, Inc, Plymouth Meeting, Pa.) for 2, 4, 6, 8, 16 and 20 hr. Cells were treated with 5 μM hydroxyflutamide for 5 days before the commencement of treatment with 400 ng/ml TRAIL.
Two methods were used to measure induction of apoptosis by drug treatment: the MTT assay and the Apoptosense assay. The MTT assay measures mitochondrial enzyme activity and is indicative of the number of surviving cells. The Apoptosense assay is an ELISA, which utilizes M30 antibody to recognize the C-terminal domain (amino acids 387-396) of cytokeratin 18 that is exposed in apoptotic cells after cleavage by caspases.
Cells were seeded in 96-well plates (6000 cells/well) and treatment was started 24 hr after seeding the cells. After completion of the treatment, cells were incubated at 37° C. with the MTT reagent for 3 hr and processed according to manufacturers instructions (Promega Corporation, Madison, Wis.). Color development was measured at 490 nm on a Spectra MAX 340 microplate reader (Molecular Devices, Menlo Park, Calif.).

Molecule	DR4 levels (LNCaP C4-2 cells)	activation of procaspase-8 (LNCaP C4-2 cells; FIG. 3B)	induction of caspase-3 (LNCaP C4-2 cells; FIG. 3D)	DR4 levels (LNCaP cells)	expression of DR5 (LNCaP cells)	activation of procaspase-8 (LNCaP cells; FIG. 3A)	activation of caspase-3 (LNCaP cells; FIG. 3C)	activation of caspase-7 in TRAIL-treated cells after pre-treatment with Mifepristone (LNCaP cells; Mifepristone pre-treatment, then TRAIL, FIG. 3C)	apoptotic response at 200 ng/ml (PC3AR cells; 200 ng/ml TRAIL)	apoptosis (PC3AR cells; 400 ng/ml TRAIL, by 20 hr, FIG. 1E)	apoptosis at higher dose (PC3AR cells; 600 ng/ml TRAIL)	cytochrome c levels in cytosol (LNCaP C4-2 cells; FIG. 5B)	phosphorylated Akt (LNCaP cells; 15 min, FIG. 8)	truncated Bid (tBid) (LNCaP cells; FIG. 3A)	activation of caspase-7 (LNCaP cells; FIG. 3C)	cytochrome c levels in cytosol (LNCaP cells; FIG. 5A)
CC#C[C@]1(O)CC[C@H]2[C@@H]3CCC4=CC(=O)CCC4=C3[C@@H](c3ccc(N(C)C)cc3)C[C@@]21C [Mifepristone]	did not show significant changes	small increase in the activation of caspase-8	nor is it effective in inducing caspase-3	did not show significant changes	significant increase	small increase in the activation of caspase-8	activates caspase-3	activated caspase-7 by 4 hr								
B1	did not show significant changes			did not show significant changes	did not increase significantly	decrease in the 57 KDa procaspase-8 protein as early as 2 hr	yielded cleaved 17 KDa caspase-3 product by 2 hr		lower response	~41%	did not significantly increase apoptosis	increased cytochrome c levels in cytosol within 15 min	slightly decreased phosphorylated Akt	tBid was noted by 2 hr	activated caspase-7 by 20 hr	increased cytochrome c levels in cytosol within 15 min
